{
  "source": "patent US20080102459A1",
  "about": "“Method of Screening Antiobesity Agents” (ASTELLAS PHARMA INC., priority 2004, published 2008)",
  "key": {"[1]": {"test_system": "AGF gene", "test": "Amount of AGF gene expressed in C2C12 cells by quantitative PCR", "type": "cell-based, mouse", "details": "48 hours, compensated by cyclophilin, insulin at 100 nmol/L", "protocol": "C2C12 cells (ATCC No.: CRL-1772) were added to a 24-well collagen-coated plate (ASAHI TECHNO GLASS) to become 20000 cells per well, and cultured with a Dulbecco's modified Eagle's medium (DMEM) supplemented with 15% fetal bovine serum, for one day. After insulin (Biomedical Technologies Inc) was added to the medium to a final concentration of 100 nmol/L, or after the medium was changed to the culture supernatant of 3T3-L1 prepared in Example 11, the C2C12 cells were cultured for 48 hours. As a control, the C2C12 cells were cultured with DMEM supplemented with 15% fetal bovine serum for 48 hours, without such treatments. After the cultivation, total RNAs were prepared from treated cells using an RNeasy Mini Kit (Qiagen) in accordance with a protocol attached thereto, and 500 ng thereof was converted to cDNAs using a Thermoscript RT-PCR system kit (Invitrogen).\nAmounts of AGF gene expressed in C2C12 cells were measured by a quantitative PCR, using DNAs of SEQ ID NOS: 29 and 30 as primers for amplifying the mouse AGF, cDNAs (derived from culture supernatants of C2C12 cells) prepared in Example 12 as a template, and a sequence detector (ABI PRISM 7900; Applied Biosystems). […]"}, "[2]": {"test_system": "ATDC5 cells", "test": "Binding of AGF protein to cell line, flow cytometry", "details": "protein 10 μg/mL, 4° C., 30 minutes; PI negative cells", "protocol": "ATDC5 cells were cultured in a growth medium (DMEM/F12 with 5% FCS) to become subconfluent, and removed from a plate by a cell scraper. The cells were washed twice with an FCM buffer (0.1% BSA/1 mmol/L CaCl2/1 mmol/L MgCl2/PBS), and reacted with or without the mouse AGF protein or the human AGF protein at 4° C. for 30 minutes, at a final concentration of 10 μg/mL of the protein. The cells were washed with the FCM buffer, and reacted with fluorescein isothiocyanate (FITC)-labeled M2 antibody (Sigma) at 4° C. for 30 minutes, at a final concentration of 10 μg/mL. The cells were washed three times with the FCM buffer, and propidium iodide (PI) was added to the cells at a final concentration of 1 μg/mL, to stain death cells. The cells were analyzed using a flow cytometer (Cytomics FC 500; Beckman Coulter, Inc.), and an FITC intensity derived from PI negative cells other than death cells was measured.\nSince the FLAG sequence was added to the human AGF protein and the mouse AGF protein, when the M2 antibody specific to the FLAG sequence was used, the FITC-labeled M2 antibody bound to the AGF protein which bound to cells, and thus, the fluorescence intensity of cells to which the AGF protein bound was increased. […]"}, "[3]": {"test_system": "MAPK", "test": "MAPK phosphorylation by AGF stimulation in ATDC5", "type": "cell-based", "details": "ATDC5 instead of C2C12"}, "[4]": {"test_system": "MAPK", "test": "MAPK phosphorylation by AGF stimulation in HUVEC", "type": "cell-based, human", "details": "HUVEC instead of C2C12"}, "[5]": {"test_system": "MAPK p42", "test": "MAPK phosphorylation by AGF stimulation, Western blotting, C2C12 cells differentiated into muscle", "type": "cell-based, mouse", "details": "AGF protein 1 μg/mL, 10 minutes, versus PBS", "protocol": "(§1) C2C12 cells were cultured with a growth medium (DMEM supplemented with 10% FCS) in a type I collagen coated 12-well plate to become confluent. After the medium was changed to a differentiation medium (DMEM supplemented with 2% horse serum), the C2C12 cells were cultured for 7 days to differentiate them into muscle. The cells were cultured in a serum-free medium containing 1% BSA, and the medium was changed to the same medium. The AGF protein (final concentration=1 μg/mL) or an equal volume of PBS was added. After 10 minutes, the medium was remove by suction, and the reaction was stopped by adding 50 μL of a solution for cell lysis [50 mmol/L HEPES (pH7.2), 1% Triton X-100, 10% glycerol, 10 mmol/L Na4P2O7, 100 mmol/L NaF, 100 μmol/L Na3VO4, 40 mmol/L EDTA, 50 μg/mL aprotinin, 1 mmol/L phenylmethyl sulfonyl fluoride (PMSF), 0.1 mmol/L leupeptin, and 25 μmol/L pepstatin A] to the cells. To each cell lysate sample obtained, an SDS-sample buffer [20% glycerol, 130 mmol/L Tris-HCl (pH6.8), 10% 2-mercaptoethanol, 6% SDS, and 0.2 mg/mL bromphenol blue] was added, and each sample was subjected to SDS-PAGE and blotted to a polyvinylidene fluoride (PVDF) membrane. Western blotting was carried out, using an anti-phosphorylated MAPK p38 antibody (Cell signaling #9211), an anti-phosphorylated MAPK p42/p44 antibody (Cell signaling #9101), an anti-MAPK p38 antibody (Cell signaling #9212), or an anti-MAPK p42/44 antibody (Cell signaling #9102) as the first antibody and an HRP-labeled anti-mouse IgG antibody (Example 9) as the second antibody, to detect a phosphorylation of MAPK p38, MAPK p42, and MAPK p44. The result of Western blotting was scanned using a scanner, and a concentration of each phosphorylated band was quantitated by an image analyzing software."}, "[6]": {"test_system": "MAPK p44", "test": "MAPK phosphorylation by AGF stimulation, Western blotting, C2C12 cells differentiated into muscle", "type": "cell-based, mouse", "details": "AGF protein 1 μg/mL, 10 minutes, versus PBS", "protocol": "as §1"}, "[7]": {"test_system": "MAPK p38", "test": "MAPK phosphorylation by AGF stimulation, Western blotting, C2C12 cells differentiated into muscle", "type": "cell-based, mouse", "details": "AGF protein 1 μg/mL, 10 minutes, versus PBS", "protocol": "as §1"}},
  "data": [
    {"molecule": "insulin", "values": [
      {"measurement": "induction of AGF expression in comparison with untreated control", "setting": "[1]", "value": "approximately 6 times"}
    ]},
    {"molecule": "mouse AGF protein: FLAG-tagged recombinant mouse angiopoietin-related growth factor purified from HEK293 culture supernatant (protein, left off: small tags and cut ends, FLAG-tagged recombinant mouse angiopoietin-related growth factor purified from HEK293 culture supernatant) ARCRVTLVLSPQKATSAVCRSSEATQDSELATLRMRLGRHEELLRALQRRAAEGGALADEVRALREHSLTLNTRLGQLRAQLQQEARAEPDLGAEPAAALGLLAERALDAEAEARRTTARLQQLDAQLREHAQLMSQHSSLLGRLQRACAGPERGQQQVLPLPLAPLVPLSLVGSASNTSRRLDQTPEHQREQSLRQQGPPSSLLPTGHLAVPTRPVGPWRDCAEAHGAGHWQSGVYDLRLGRRVVAVWCEQQQEGGGWTVIQRRQDGSVNFFTNWQHYKAGFGRPEGEYWLGLEPVHQVTSRGDHELLILLEDWGGRAARAHYDSFSLEPESDHYRLRLGQYHGDAGDSLSWHNDKPFSTVDRDRDSYSGNCALYHRGGWWYHACAHSNLNGVWYHGGHYRSRYQDGVYWAEFRGGAYSLKKAVMLTRLVRL", "values": [
      {"measurement": "increase of the fluorescence intensity (FITC-labeled M2 antibody) of cells", "setting": "[2]", "value": 1.5, "unit": "times"}
    ]},
    {"molecule": "AGF protein: angiopoietin-related growth factor protein, species not stated in Example 16 (protein, UniProt Q8NI99 21-470, looked up) Angiopoietin-related protein 6: RAGAPRCTYTFVLPPQKFTGAVCWSGPASTRATPEAANASELAALRMRVGRHEELLRELQRLAAADGAVAGEVRALRKESRGLSARLGQLRAQLQHEAGPGAGPGADLGAEPAAALALLGERVLNASAEAQRAAARFHQLDVKFRELAQLVTQQSSLIARLERLCPGGAGGQQQVLPPPPLVPVVPVRLVGSTSDTSRMLDPAPEPQRDQTQRQQEPMASPMPAGHPAVPTKPVGPWQDCAEARQAGHEQSGVYELRVGRHVVSVWCEQQLEGGGWTVIQRRQDGSVNFFTTWQHYKAGFGRPDGEYWLGLEPVYQLTSRGDHELLVLLEDWGGRGARAHYDGFSLEPESDHYRLRLGQYHGDAGDSLSWHNDKPFSTVDRDRDSYSGNCALYQRGGWWYHACAHSNLNGVWHHGGHYRSRYQDGVYWAEFRGGAYSLRKAAMLIRPLKL", "values": [
      {"measurement": "phosphorylation of MAPK", "setting": "[3]", "value": "promoted"},
      {"measurement": "phosphorylation of MAPK", "setting": "[4]", "value": "promoted"},
      {"measurement": "increase of phosphorylation in phosphorylated MAPK p42", "setting": "[5]", "value": 3.4, "unit": "times"},
      {"measurement": "increase of phosphorylation in phosphorylated MAPK p44", "setting": "[6]", "value": 4.3, "unit": "times"},
      {"measurement": "increase of phosphorylation in phosphorylated MAPK p38", "setting": "[7]", "value": 1.6, "unit": "times"}
    ]},
    {"molecule": "human AGF protein: FLAG-tagged recombinant human angiopoietin-related growth factor purified from HEK293 culture supernatant (protein, left off: small tags and cut ends, FLAG-tagged recombinant human angiopoietin-related growth factor purified from HEK293 culture supernatant) RAGAPRCTYTFVLPPQKFTGAVCWSGPASTRATPEAANASELAALRMRVGRHEELLRELQRLAAADGAVAGEVRALRKESRGLSARLGQLRAQLQHEAGPGAGPGADLGAEPAAALALLGERVLNASAEAQRAAARFHQLDVKFRELAQLVTQQSSLIARLERLCPGGAGGQQQVLPPPPLVPVVPVRLVGSTSDTSRMLDPAPEPQRDQTQRQQEPMASPMPAGHPAVPTKPVGPWQDCAEARQAGHEQSGVYELRVGRHVVSVWCEQQLEGGGWTVIQRRQDGSVNFFTTWQHYKAGFGRPDGEYWLGLEPVYQLTSRGDHELLVLLEDWGGRGARAHYDGFSLEPESDHYRLRLGQYHGDAGDSLSWHNDKPFSTVDRDRDSYSGNCALYQRGGWWYHACAHSNLNGVWHHGGHYRSRYQDGVYWAEFRGGAYSLRKAAMLIRPLKL", "values": [
      {"measurement": "increase of the fluorescence intensity (FITC-labeled M2 antibody) of cells", "setting": "[2]", "value": 8.1, "unit": "times"}
    ]}
  ]
}
